The values below come from the RNAGym collection of RNA variant scans (doi:10.7554/elife.80360).

The chains are these.
B1: HDV Ribozyme (parent)
chain: GGCCGGCAUGGUCCCAGCCUCCUCGCUGGCGCCGGCUGGGCAACAUUCCGAGGGGACCGUCCCCUCGGUAAUGGCGAAUGGGACCCA

In this data set the parent is B1. Put plainly: self-cleavage, relative activity (ratio to wild type); higher = more cleavage; co-transcriptional.
Take GGCCGGCAGCGUCCCAGCCUCCUCGCUGGCGCCGGCUGGGCAACAUUCCGAGGGGACCGUCCCCUCGGUAAUGGCGAAUGGGACCCA [U9G G10C]: the self-cleavage was determined as 0.489.

Turning to GGCCGGCAGGGUCCCAGCCUCCUCGCUGGCGCCGGCUGGGCAACAUUCCGAGGGGACCGUCCUCUCGGUAAUGGCGAAUGGGACCCA [U9G C63U], the self-cleavage is 1.07.

For GGCCGGCAGGGUCCCAGCCUCCUCGCUGGCGCCGGCUGGGCAACAUUCCGAGGGGACCGUCCCCUCGGUAAUGGCGCAUGGGACCCA [U9G A77C], the self-cleavage is 0.185.

Regarding GGCCGGCAGGGUCCCAGCCUCCUCGCUGGCGCCGGCUGGGCAACAUUCCGAGGGGACCGUCCCCUCGGUAAUGGCGAAUGGGACCCU [U9G A87U], the self-cleavage is 0.853.

For GGCCGGCAGGGUCCCAGCCUCCUCGCUCGCGCCGGCUGGGCAACAUUCCGAGGGGACCGUCCCCUCGGUAAUGGCGAAUGGGACCCA [U9G G28C], the self-cleavage came to 0.222.

In the case of GGCCGGCAGGGUCCCAGCCUCCUCGCUAGCGCCGGCUGGGCAACAUUCCGAGGGGACCGUCCCCUCGGUAAUGGCGAAUGGGACCCA [U9G G28A], the self-cleavage stood at 0.0573.

With GGCCGGCAGGGUCCCAGCCUCGUCGCUGGCGCCGGCUGGGCAACAUUCCGAGGGGACCGUCCCCUCGGUAAUGGCGAAUGGGACCCA [U9G C22G], the self-cleavage came to 0.208.

In the case of GGCCGGCAGGGUCCCAGCCUCCUCGCUGGCGCCGGCUGGGCAACAUUCCGCGGGGACCGUCCCCUCGGUAAUGGCGAAUGGGACCCA [U9G A51C], the self-cleavage was found to be 1.03.

GGCCGGCAGGGUCCCAGCCUCCUCGCUGGCGCCGGCUGGGCAACAUUCCGGGGGGACCGUCCCCUCGGUAAUGGCGAAUGGGACCCA [U9G A51G]: the self-cleavage amounted to 0.95.

As for GGCCGGCAGGGUCCCAGCCUCCUCGCUGGCGCCGGCUGGGCAACAUUCCGUGGGGACCGUCCCCUCGGUAAUGGCGAAUGGGACCCA [U9G A51U], the self-cleavage was 1.22.

For the variant GGCCGGCAGGGUCCCAGCCUCCUCGCUGGUGCCGGCUGGGCAACAUUCCGAGGGGACCGUCCCCUCGGUAAUGGCGAAUGGGACCCA [U9G C30U], the self-cleavage worked out at 0.853.

For the variant GGCCGGCAGGGUCCCAGCCUCCUCGCUGGGGCCGGCUGGGCAACAUUCCGAGGGGACCGUCCCCUCGGUAAUGGCGAAUGGGACCCA [U9G C30G], the self-cleavage amounted to 0.145.

For the variant GGCCGGCAGGGUCCCAGCCUCCUCGCUGGCGCCGGCUGGGCAACAUUCCGAGGGGACCGUCCCCUGGGUAAUGGCGAAUGGGACCCA [U9G C66G], the self-cleavage worked out at 1.19.

GGCCGGCAGGGUCCCAGCCUCCUCGCUGGCGCCGGCUGGGCAACAUUCCGAGGGGACCGUCCCCUUGGUAAUGGCGAAUGGGACCCA [U9G C66U]: the self-cleavage stood at 0.727.

Turning to GGCCGGCAGGGUCCCAGCCUCCUCGCUGGCGCCGGCUGGGCAACAUUCCGAGGGGACCGUGCCCUCGGUAAUGGCGAAUGGGACCCA [U9G C61G], the self-cleavage stood at 1.02.

Take GGCCGGCAGGGUCCCAGCCUCCUUGCUGGCGCCGGCUGGGCAACAUUCCGAGGGGACCGUCCCCUCGGUAAUGGCGAAUGGGACCCA [U9G C24U]: the self-cleavage was determined as 0.767.

Take GGCCGGCAGGGUCCCAGCCUCCUAGCUGGCGCCGGCUGGGCAACAUUCCGAGGGGACCGUCCCCUCGGUAAUGGCGAAUGGGACCCA [U9G C24A]: the self-cleavage was determined as 0.525.

Consider GGCCGGCAGGGUCCCAGCCUCCUCGCUGGCGCCGGCUGGGCAACAUUCCGAGGGGAACGUCCCCUCGGUAAUGGCGAAUGGGACCCA [U9G C57A], for which the self-cleavage is 0.831.

With GGCCGGCAGGGUCCCAGCCUCCUCGCUGGCGCCGGCUGGGCAACAUUCCGAGGGGAGCGUCCCCUCGGUAAUGGCGAAUGGGACCCA [U9G C57G], the self-cleavage turned out to be 1.19.

For the variant GGCCGGCAGGGUCCCAGCCUCCUCGCUGGCGCCGGCUGGGCAACAUUUCGAGGGGACCGUCCCCUCGGUAAUGGCGAAUGGGACCCA [U9G C48U], the self-cleavage came to 1.05.

Consider GGCCGGCAGGGUCCCAGCCUCCUCGGUGGCGCCGGCUGGGCAACAUUCCGAGGGGACCGUCCCCUCGGUAAUGGCGAAUGGGACCCA [U9G C26G], for which the self-cleavage came out at 0.88.

Turning to GGCCGGCAGGGUCCCAGCCUCCUCGCUGGCGCCGGCUGGGCAACAUUCCGAGGGGACCGUCCCCUCGGUAAUGGCGAAUGGGACGCA [U9G C85G], the self-cleavage was found to be 0.895.

Consider GGCCGGCAGGGUCCCAGCCUCCUCGCUGGCGCCGGCUGGGCAACAUUCCGAGGGGACCGUCCCCUCGGUAAUGGCGAAUGGGACUCA [U9G C85U], for which the self-cleavage stood at 1.14.

For GGCCGGCAGGGUCCCAGCCUCCUCGCUGGCGCCGGCUCGGCAACAUUCCGAGGGGACCGUCCCCUCGGUAAUGGCGAAUGGGACCCA [U9G G38C], the self-cleavage worked out at 0.302.

Regarding GGCCGGCAGGGUCCCAGCCUCCUCGCUGGCGCCGGCUUGGCAACAUUCCGAGGGGACCGUCCCCUCGGUAAUGGCGAAUGGGACCCA [U9G G38U], the self-cleavage is 0.

Consider GGCCGGCAGGGUCCCAGCCUCCUCGCUGGCGACGGCUGGGCAACAUUCCGAGGGGACCGUCCCCUCGGUAAUGGCGAAUGGGACCCA [U9G C32A], for which the self-cleavage was found to be 0.277.

As to GGCCGGCAGGGUCCCAGCCUCCUCGCUGGCGUCGGCUGGGCAACAUUCCGAGGGGACCGUCCCCUCGGUAAUGGCGAAUGGGACCCA [U9G C32U], the self-cleavage is 0.623.

Turning to GGCCGGCAGGGUCCCAGCGUCCUCGCUGGCGCCGGCUGGGCAACAUUCCGAGGGGACCGUCCCCUCGGUAAUGGCGAAUGGGACCCA [U9G C19G], the self-cleavage is 0.

For GGCCGGCAGGGUCCCAGCUUCCUCGCUGGCGCCGGCUGGGCAACAUUCCGAGGGGACCGUCCCCUCGGUAAUGGCGAAUGGGACCCA [U9G C19U], the self-cleavage is 0.119.

GGCCGGCAGGGUCCCAGCCUCCUCGCUGGCGCCGGCUGGGCAACAUUCCGAGGGGACGGUCCCCUCGGUAAUGGCGAAUGGGACCCA [U9G C58G]: the self-cleavage was determined as 1.02.

As for GGCCGGCAGGGUCCCAGCCUCCUCGCUGGCGCGGGCUGGGCAACAUUCCGAGGGGACCGUCCCCUCGGUAAUGGCGAAUGGGACCCA [U9G C33G], the self-cleavage was 0.104.

For GGCCGGCAGGGUCCCAGCCUCCUCGCUGGCGCAGGCUGGGCAACAUUCCGAGGGGACCGUCCCCUCGGUAAUGGCGAAUGGGACCCA [U9G C33A], the self-cleavage amounted to 0.293.
